Several values for one entry are separate records, joined by “and”; a condition that tells them apart may be missing. Identical values can stand only once.
Tested on: Bacillus subtilis DB104 (SP-AmyQ fusion secretion)
Test: AmyQ secretion efficiency, weighted average sort bin (1 = best secretion, 10 = worst) (bin number (weighted average, 1-10)); higher = lower secretion efficiency
In short: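 Designed signal peptides were fused to mature AmyQ and expressed from the amyE locus in B. subtilis DB104, and this library was loaded at about 0.3 cells per ~65 nL alginate bead together with fluorescein-starch. After about 13 h of growth at room temperature and nile red staining, occupied beads were split into 10 equally populated bins by green/red fluorescence ratio using large-particle flow cytometry. Amplicons from every bin were Illumina-sequenced. The secretion score is the average bin number weighted by read frequency and normalised to beads per bin, excluding low-abundance sequences.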

| Sequence | AmyQ secretion efficiency |
| --- | --- |
| MMITWNVCLTALLSVLLVAGSVPFHAEAKKP | 3.89 |
| MMKCVICLSLLVFGTTAAHAEET | 3.1 |
| MMKKGLLAGALTATVLFGTCAVDVPGIISPKTAEAAKR | 4.03 |
| MMKKGLLAGALTATVLFGTCAVDVPGIISPKTAEAASR | 2.71 |
| MMKKGLLAGALTATVLFGTCAVDVPGIISPKTIEAASQ | 4.02 |
| MMKKGLLAGALTATVLFGTCAVDVPKAEAASQ | 1.63 |
| MMKKGLLAGALTATVLFGTCAVGVPGIISPKTAEAASQ | 1.35 |
| MMKKGLLAGALTATVLFGTCKDAEAASQ | 1.66 |
| MMKKGLLAGALTATVLFIGTCAVDVPGIISPKTAEAASQ | 1.04 |
| MMKKGLLAGALTATVLFRKCAVRVPGIISPKTAEAASQ | 6.57 |
| MMKKGQSGSALTATVLFGTCAVDVPGIISPKTAEAASQ | 6.78 |
| MMKKGRSRQQLTATVLFGTCAVDVPGIISPKTAEAASQ | 7.68 |
| MMKKGSLFFLLAGALTATVLFGTCAVDVPGIISPKTAEAASQ | 3.32 |
| MMKKLAAGLTASAIVGTTLVVTPAEAATI | 2.13 |
| MMKKLFHSTLIVLLFFSFFGVIPIHAKKQ | 1.92 |
| MMKKLFHSTLIVLLFFSFFGVKRKIHAKKQ | 3.3 |
| MMKKLFHSTLIVLLFFSFFGVQIHAKKQ | 2.18 |
| MMKKLFHSTLIVLLFFSFFGVQPCHAKKQ | 1.69 |
| MMKKLFHSTLIVLLFFSFFGVQPEIHAKKQ | 2.24 |
| MMKKLFHSTLIVLLFFSFFGVQPGHAKKQ | 2.96 |
| MMKKLFHSTLIVLLFFSFFGVQPIHAAED | 3.19 |
| MMKKLFHSTLIVLLFFSFFGVQPIHAAKK | 1.9 |
| MMKKLFHSTLIVLLFFSFFGVQPIHAATR | 2.55 |
| MMKKLFHSTLIVLLFFSFFGVQPIHAKKR | 2.74 |

| Sequence | AmyQ secretion efficiency |
| --- | --- |
| MMKKLFHSTLIVLLFFSFFGVQPLHAKKQ | 2.57 |
| MMKKLFHSTLIVLLFFSFFGVQPVASSASTIHAKKQ | 2.41 |
| MMKKLFHSTLIVLLFFSFFGVRKKRRKIHAKKQ | 6.23 |
| MMKKLFHSTLIVLLFFSFFGVSPIHAKKQ | 2.2 |
| MMKKLFHSTLRKLLFFSFFGVQPIHAKKQ | 7.14 |
| MMKKLFHSTLRRRRFFSFFGVQPIHAKKQ | 7.67 |
| MMKKLFHSTQGRQSFFSFFGVQPIHAKKQ | 7.5 |
| MMKKQVMLALTAAAGLGLTALHSAPAAKAAPL | 2.65 |
| MMKLLAAGIIGLLTVSIASPSFAAEK | 2.05 |
| MMKQIITATTAVVLGSTLFAGAASAQSI | 2.49 |
| MMKRSSLIMMTGLLFGLTSPAFAAEK | 3.11 |
| MMKVLMAFIICLSLILSVLAAPPSGAKAESV | 5 |
| MMLAKRVSALTPSTTLAITAKAKEL | 7.47 |
| MMLMMSVSMFLVALTMCGGLFVTPAKAVKT | 4.77 |
| MMLSVKIAGVLTVAAAAMTAKMYATAKGN | 5.4 |
| MMMLRKIIGWILLLCIIPLFAFTVIASGKEV | 5.45 |
| MMMWLIIAVSLAIAIVLFMYTKGEAKAAGM | 6.9 |
| MMQIMIFLTSFMLLAMTGQTALAKDV | 4.32 |
| MMRIRIPMTLALGAALTIAPLSFASAEEN | 2.92 |
| MMRTWNVCLTALLSVLLVAGSVPFHAEAKKP | 3.23 |
| MMSLLAAGIIGLLTVSIASPSFAAEK | 5.23 |
| MMSLLSTLLIGIMLLTFAPSAFAKQD | 1.88 |
| MMSLLVSLRVWMVFLMNWVTPDRKTAAAAVY | 5.61 |
| MMSRKILLSSALSLGMLVSAAPVLATSS | 3.37 |

| Sequence | AmyQ secretion efficiency |
| --- | --- |
| MMSSISIFITCLLITLLTMGGMIASPASAAGT | 2.44 |
| MMSTIFAFLTGLMMFGTITAASASPD | 4.92 |
| MMSTIMSFVAVAALSTTAFGAHASAKEI | 4.72 |
| MMTAIIIAIIAAVIVIAALITFNVRNASPG | 6.42 |
| MMTIWIGMLAAAVLLLMVPKVSLADAA | 5.79 |
| MMTKSKLLLSCLALSTVFVATTIANAPTH | 5.2 |
| MMTLCVMMLLFSAIASFPVSAQAKDQ | 7.11 |
| MMTMLFHSTLIVLLFFSFFGVQPIHAKKQ | 2.1 |
| MMTTIFAFLTGLMMFGTITAASASPD | 4.48 |
| MMVCMKSIVRFLVSLIIGTFVISVPFMANAQSD | 2.06 |
| MNFKKTGVSALSISALALSVSGVASAHEI | 3.9 |
| MNFKKTITTSSSVVSALSISALALSVSGVASAHEI | 4.04 |
| MNFKKTTSIVVSALSISALALSVSGVASAHEI | 3.35 |
| MNFKKTVRKRRSISALALSVSGVASAHEI | 7.55 |
| MNFKKTVVSALSISALALEEEDEDASAHEI | 6.1 |
| MNFKKTVVSALSISALALEEEGVASAHEI | 7.3 |
| MNFKKTVVSALSISALALEPSGVASAHEI | 2.95 |
| MNFKKTVVSALSISALALKKRGVASAHEI | 6.98 |
| MNFKKTVVSALSISALALRKRRKRASAHEI | 7.78 |
| MNFKKTVVSALSISALALSVSGVASAHSD | 2.93 |
| MNFKKTVVSALSISALALSVSGVASAHTI | 3.63 |
| MNFKKTVVSALSISALALSVSGVASARRK | 6.94 |
| MNFKKTVVSALSISALALSVSGVASGHEI | 4.67 |
| MNFKKTVVSALSISALALSVSGVASSHEI | 5.89 |

| Sequence | AmyQ secretion efficiency |
| --- | --- |
| MNFKKTVVSALSISALALSVSGVVSAHEI | 2.69 |
| MNFKKTVVSALSISALALTVTSISVSGVASAHEI | 3.48 |
| MNFKKTVVSALSISALALVSVSGVASAHEI | 3.04 |
| MNFKKTVVSALSISASVSGVASAHEI | 5.11 |
| MNFMFTVVSALSISALALSVSGVASAHEI | 3.15 |
| MNIKKFAKQATVLTFTTALLAGGATQAFAATE | 1.07 |
| MNIKKFAKQATVLTFTTALLAGGATQAFAKET | 3.3 |
| MNIKKFAKQATVLTFTTALLAGGATQAFAKET [wt_31] | 3.5 |
| MNIKKFAKQATVLTFTTALLAGGATQAFAKKR | 3.43 |
| MNILLILLSSALSFGMLISAVPALAAGT | 2.56 |
| MNITIMSFVAVAALSTTAFGAHASAKEI | 3.64 |
| MNKFLKSNFRFKRAAALGISLLASSNFIKASND | 3.29 |
| MNKFLKSNFRFLLAAALGISLLASSNFAKASND | 1.03 |
| MNKFLKSNFRFLLAAALGISLLASSNFCKASND | 1.73 |
| MNKFLKSNFRFLLAAALGISLLASSNFIKASND | 4.18 and 4.22 and 2.8 |
| MNKFLKSNFRFLLAAALGISLLGESNPIKASND | 1.52 |
| MNKFLKSNFRFLLAAALGISLLKRSNFIKASND | 6.59 |
| MNKFLKSNFRFLLAAALGISLLVLFVIFITFASSNFIKASND | 4.18 |
| MNKFLKSNFRFRRKRKKGISLLASSNFIKASND | 8.33 |
| MNKFLKSNFRYYTTGALGISLLASSNFIKASND | 7 |
| MNKFLKSNRFLLAAALGISLLASSNFIKASND | 4.66 |

From the supplement of paper PMC9942255
